Numbering of substitutions follows the chain as printed.

Assay [1] concerns the target T1, calreticulin (CRT) exposed on the cell membrane of drug-treated CT26 and MC38 cells (UniProt P14211 18-416, limits assumed).
T1 construct: whole, on cells; Target is inferred from cells on which calreticulin exposure was induced by anticancer drugs; cells were fixed with 3% paraformaldehyde; also called calreticulin on the cell surface
T1 sequence (looked up): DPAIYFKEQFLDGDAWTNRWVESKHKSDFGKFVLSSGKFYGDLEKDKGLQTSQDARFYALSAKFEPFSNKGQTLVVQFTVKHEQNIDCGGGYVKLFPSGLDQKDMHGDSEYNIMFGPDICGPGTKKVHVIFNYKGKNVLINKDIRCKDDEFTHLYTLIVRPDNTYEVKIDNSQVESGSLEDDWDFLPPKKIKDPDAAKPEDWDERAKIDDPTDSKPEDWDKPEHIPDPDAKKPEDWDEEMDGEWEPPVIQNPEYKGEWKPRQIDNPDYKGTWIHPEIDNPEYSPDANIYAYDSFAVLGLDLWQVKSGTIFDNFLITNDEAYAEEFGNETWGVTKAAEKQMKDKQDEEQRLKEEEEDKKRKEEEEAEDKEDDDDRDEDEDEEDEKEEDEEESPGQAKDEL
Nature of the assay: confocal microscopy, mitoxantrone-treated CT26 cells, 10 µg/mL monobody, anti-His tag detection. As for the experimental part: In order to verify the binding force of the purified CRT-monobody to calreticulin, the present inventors observed the degree of binding with a confocal microscope after treating the cancer cells with CRT-monobody. Specifically, CT26 (colon cancer) cells, which are cancer cells, were seeded at 1×10⁵ cells per well in chamber slides (154534PAK, Thermo Fisher Scientific) and cultured overnight in a C02 incubator. Then, each of the cells was treated with mitoxantrone (25 μM), which is an anticancer drug, to induce calreticulin on the surface thereof, treated with gemcitabine (15 μM) as a control group, and cultured for 4 hours, washed with PBS, and reacted with 3% paraformaldehyde for 10 minutes to fix the cells. Then, a block buffer (3% BSA in PBS) was treated for 1 hour to prevent the hard-to-bind antibody, and the CRT-monobody (10 μg/mL) of the present invention was treated in each well and reacted for 1 hour to induce binding to calreticulin. […] In addition, Alexa 555 conjugated WGA-555 (1:2000, 3% BSA in PBS) was treated in order to distinguish cell membranes, DAPI-Glod-antifade was treated, and mounting was performed, and the prepared slides were refrigerated under dark conditions.

For assay [2], the target named is T2, calreticulin (CRT) exposed on the cell membrane of drug-treated Hela and MDA-MB-231 cells (UniProt P27797 18-417, limits assumed).
T2 construct: whole, on cells; Target is inferred from cells on which calreticulin exposure was induced by anticancer drugs; cells were fixed with 3% paraformaldehyde; also called calreticulin on the cell surface
T2 sequence (looked up): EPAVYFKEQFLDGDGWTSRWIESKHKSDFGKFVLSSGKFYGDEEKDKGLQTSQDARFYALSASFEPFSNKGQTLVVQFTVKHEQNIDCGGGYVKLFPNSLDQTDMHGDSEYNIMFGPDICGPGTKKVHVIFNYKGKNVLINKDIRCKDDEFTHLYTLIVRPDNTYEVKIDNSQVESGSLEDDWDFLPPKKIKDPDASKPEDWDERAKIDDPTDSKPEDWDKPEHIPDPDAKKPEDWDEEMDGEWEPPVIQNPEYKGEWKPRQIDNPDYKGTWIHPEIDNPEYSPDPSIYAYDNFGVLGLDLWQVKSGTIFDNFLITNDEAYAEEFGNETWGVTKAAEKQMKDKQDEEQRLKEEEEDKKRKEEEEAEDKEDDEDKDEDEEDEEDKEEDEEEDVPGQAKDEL
Nature of the assay: flow cytometry, mitoxantrone- or doxorubicin-treated Hela and MDA-MB-231 cells, 5 µg/mL, anti-His tag detection. An excerpt: (§1) The present inventors allowed cancer cells to react with CRT-monobody-Rluc8, and then measured the binding degree in the number of cells in order to more accurately confirm the binding force of CRT-monobody-Rluc8, which was purified according to an embodiment of the present invention, to calreticulin. To this end, CT26, MC38, Hela, and MDA-MB-231 cells were first cultured, and then the expression of calreticulin on the cell surface was induced by the same method (gemcitabine, doxorubicin, and mitoxantrone) as in Example 5. […] Finally, in order to identify cells bound to CRT-monobody, fluorescence signals of the cells were identified using a flow cytometer (BD Bioscience).
(§2) As a result, when the CT26 (colon cancer), MC38 (colon cancer), Hela (uterine cancer), and MDA-MB-231 (breast cancer) cells were not treated with an anticancer drug and when the cells were treated with gemcitabine, no exposure of calreticulin on the cell membrane was confirmed through fluorescence signals for each cell, and there was no signal change after CRT-monobody treatment of the present invention, so that it was confirmed that the CRT-monobody was not bound to the cells.
In general terms: In flow cytometry, cells or beads pass a laser one at a time.

In assay [3] the target is T1, calreticulin (CRT) exposed on the cell …. Nature of the assay: flow cytometry, mitoxantrone- or doxorubicin-treated CT26 and MC38 cells, 5 µg/mL, anti-His tag detection.
Description: as §1, §2

For assay [4], the target named is T2, calreticulin (CRT) exposed on the cell …. Description: confocal microscopy, mitoxantrone- or doxorubicin-treated Hela and MDA-MB-231 cells, 10 µg/mL, anti-His tag detection. As to the method:
In order to verify the binding force of the CRT-monobody-Rluc8 protein to calreticulin, the present inventors observed the degree of binding with a confocal microscope after purifying CRT3-R, CRT4-R, and DGR-R as in Example 3 and treating cancer cells with the CRT-monobody-Rluc8 proteins. Specifically, cancer cells such as CT26 (colon cancer), MC38 (colon cancer), Hela (uterine cancer), and MDA-MB-231 (breast cancer) were seeded at 1×10⁵ cells per well in chamber slides (154534PAK, Thermo Fisher Scientific) and cultured overnight in a CO₂ incubator. Then, each of the cells was treated with doxorubicin (25 μM) and mitoxantrone (25 μM), which are anticancer drugs, to induce calreticulin on the surface thereof, treated with gemcitabine (15 μM) as a control group, and cultured for 4 hours, washed with PBS, and reacted with 3% paraformaldehyde for 10 minutes to fix the cells. Then, a block buffer (3% BSA in PBS) was treated for 1 hour to prevent the hard-to-bind antibody, and the CRT-monobody (10 μg/mL) was treated in each well and reacted for 1 hour to induce binding to calreticulin. […] In addition, Alexa 555 conjugated WGA-555 (1:2000, 3% BSA in PBS) was treated in order to distinguish cell membranes, DAPI-Glod-antifade was treated, and mounting was performed, and the prepared slides were refrigerated under dark conditions.

B1: CRT1 recombinant CRT-monobody (designed binder)
chain: MASVSDVPRDLEVVAATPTSLLISWDAPAVTVRYYRITYGETGGNSPVQEFTVPGSKSTATISGLKPGVDYTITVYAVTGQPMYGQPMYPISINYRTGSHHHHHH
notes: His-tagged protein expressed in E. coli BL21(DE3) from pETh plasmid, purified on Ni-NTA; FG loop: Hep 1; BC and DE loops unchanged
Turning to B1, the binding result in assay [1] is reported as “binds”.

B2: CRT3-R (recombinant CRT-monobody-Rluc8 of CRT3) (designed binder, not shown: large carriers; small tags and cut ends)
chain: MASVSDVPRDLEVVAATPTSLLISWKLGFFKRYYRITYGETGGNSPVQEFTVPGSKSTATISGLKPGVDYTITVYAVTGQPMYGQPMYPISINYRT
notes: detected with anti-His tag antibody
In the case of B2, the binding result in assay [2] and in assay [3] was “binds” throughout.

B3: CRT2 recombinant CRT-monobody (designed binder)
chain: MASVSDVPRDLEVVAATPTSLLISWDAPAVTVRYYRITYGETGGNSPVQEFTVPGSKSTATISGLKPGVDYTITVYAVTKLGFFKRPISINYRTGSHHHHHH
notes: His-tagged protein from E. coli, purified on Ni-NTA; FG loop: Int alpha; BC and DE loops unchanged
B3: the binding result in assay [1] is recorded as “binds”.

B4: CRT5 recombinant CRT-monobody (designed binder)
chain: MASVSDVPRDLEVVAATPTSLLISWGQPMYGQPMYYYRITYGETGGNSPVQEFTVPGSKSTATISGLKPGVDYTITVYAVTGRGDSPASSKPISINYRTGSHHHHHH
notes: His-tagged protein from E. coli, purified on Ni-NTA; BC loop: Hep 1; DE and FG loops marked '-'
For B4, the binding result in assay [1] is recorded as “binds”.

B5: CRT4-R (recombinant CRT-monobody-Rluc8 of CRT4) (designed binder, not shown: large carriers; small tags and cut ends)
chain: MASVSDVPRDLEVVAATPTSLLISWGQPMYGQPMYYYRITYGETGGNSPVQEFTVPGSKSTATISGLKPGVDYTITVYAVTKLGFFKRPISINYRT
notes: as for B2
Consider B5, for which the binding result in assay [3] and in assay [4] was “binds” in each case.

B6: CRT4 recombinant CRT-monobody (designed binder)
chain: MASVSDVPRDLEVVAATPTSLLISWGQPMYGQPMYYYRITYGETGGNSPVQEFTVPGSKSTATISGLKPGVDYTITVYAVTKLGFFKRPISINYRTGSHHHHHH
notes: His-tagged protein from E. coli, purified on Ni-NTA
On to B6, for which, in assay [1], the binding result was “binds”.

B7: CRT3 recombinant CRT-monobody (designed binder)
chain: MASVSDVPRDLEVVAATPTSLLISWKLGFFKRYYRITYGETGGNSPVQEFTVPGSKSTATISGLKPGVDYTITVYAVTGQPMYGQPMYPISINYRTGSHHHHHH
notes: as for B6
For the molecule B7, in assay [1], the binding result was “binds”.

B8: CRT6 recombinant CRT-monobody (designed binder)
chain: B7 chain with Q80R, P81G, M82D, Y83S, G84P, Q85A, P86S, M87S, Y88K
notes: His-tagged protein from E. coli, purified on Ni-NTA; BC loop: Int alpha; DE and FG loops marked '-'
For the molecule B8, in assay [1], the binding result is listed as “binds”.

The values above are taken from patent publication US20240247068A1 (INDUSTRY FOUNDATION OF CHONNAM NATIONAL UNIVERSITY, published 2024).
